{"source": "patent CN111138528A", "about": "(INST MILITARY MEDICINE ACADEMY MILITARY SCIENCES PLA, dated 2020)", "biological_target": "GPdM (Ebola virus (EBOV), UniProt Q05320 33-632)", "assay": "ELISA, truncated GP coated, 5A8 titrated (method of Example 2)"}
{"binder": "单克隆抗体5A8 (antibody, V domains shown) VH: EVQLLESGGGLVKPGGSLRLSCAASGFTFSDYYMNWIRQAPGKGLEWVSYISSSGKTIYYADSVKGRFTISRDNAKKSLYLQMNSLRAEDTAVYYCARDREIVISTTILLGSDHYAMDVWGQGTTVTVSS VL: DIQMTQSPFTLSASVGDRVTITCRASQSINSYLNWYQQKPGKAPKLLIYSASSLQSGVPSRFSGSGSGTDFTLTISSLQPEDFAIYYCQQTYRTPYTFGQGTKVEIKT", "values": [{"measurement": "EC50", "result": 8.2, "unit": "ng/mL"}]}
